Assay results reported in publication PMC7203109.

How the values were obtained:
[1] = system: FLAG-ATRX-HA (full-length hATRX) (Homo sapiens); assay: pull-down RT-qPCR; settings: 2 ug protein, Pull-down: 2 mM MgCl2, 100 U/ml RNase inhibitor, 0.1 mg/ml yeast tRNA, 0.05% BSA, 0.2% NP-40, 4 °C overnight, washes 150 and 15 mM NaCl, EMSA: 50 mM Tris pH …
[2] = system: GST-RBR (ATRX RNA binding region) (Homo sapiens); assay: pull-down RT-qPCR; settings: Pull-down: 2 mM MgCl2, 100 U/ml RNase inhibitor, 0.1 mg/ml yeast tRNA, 0.05% BSA, 0.2% NP-40, 4 °C overnight, washes 150 and 15 mM NaCl, EMSA: 50 mM Tris pH …
[3] = system: GST-RBR (ATRX RNA binding region) (Homo sapiens); assay: competition pull-down RT-qPCR; settings: Pull-down: 2 mM MgCl2, 100 U/ml RNase inhibitor, 0.1 mg/ml yeast tRNA, 0.05% BSA, 0.2% NP-40, 4 °C overnight
[4] = system: FLAG-ATRX-HA (full-length hATRX) (Homo sapiens); assay: EMSA; settings: 5 mM Mg2+, yeast tRNA competitor; citation to ref 11 stands next to the value; Pull-down: 2 mM MgCl2, 100 U/ml RNase inhibitor, 0.1 mg/ml yeast tRNA, 0.05% BSA, 0.2% NP-40, 4 °C overnight, washes 150 and 15 mM NaCl; EMSA: 50 mM Tris pH …
[5] = system: FLAG-ATRX helicase domain (F6); assay: pull-down RT-qPCR; settings: 25 pmol protein; binds, less than GST-RBR; Pull-down: 2 mM MgCl2, 100 U/ml RNase inhibitor, 0.1 mg/ml yeast tRNA, 0.05% BSA, 0.2% NP-40, 4 °C overnight, washes 150 and 15 mM NaCl; EMSA: 50 mM Tris pH …
[6] = system: FLAG-ATRXΔRBR-HA (Homo sapiens); assay: pull-down RT-qPCR; settings: 2 ug protein, yeast tRNA; Pull-down: 2 mM MgCl2, 100 U/ml RNase inhibitor, 0.1 mg/ml yeast tRNA, 0.05% BSA, 0.2% NP-40, 4 °C overnight, washes 150 and 15 mM NaCl; EMSA: 50 mM Tris pH …
[7] = system: FLAG-ATRX-HA (full-length hATRX) (Homo sapiens); assay: pull-down qPCR; settings: 2 ug protein; Pull-down: 2 mM MgCl2, 100 U/ml RNase inhibitor, 0.1 mg/ml yeast tRNA, 0.05% BSA, 0.2% NP-40, 4 °C overnight, washes 150 and 15 mM NaCl; EMSA: 50 mM Tris pH …
[8] = system: FLAG-ATRXΔRBR-HA (Homo sapiens); assay: pull-down qPCR; settings: 2 ug protein; Pull-down: 2 mM MgCl2, 100 U/ml RNase inhibitor, 0.1 mg/ml yeast tRNA, 0.05% BSA, 0.2% NP-40, 4 °C overnight, washes 150 and 15 mM NaCl; EMSA: 50 mM Tris pH …
[9] = system: GST-RBR (ATRX RNA binding region) (Homo sapiens); assay: pull-down qPCR; settings: 2 ug protein; Pull-down: 2 mM MgCl2, 100 U/ml RNase inhibitor, 0.1 mg/ml yeast tRNA, 0.05% BSA, 0.2% NP-40, 4 °C overnight, washes 150 and 15 mM NaCl; EMSA: 50 mM Tris pH …

Question: Which results are given for MBP RNA, 300 nt?
Answer: binding signal [1]: 1.28 % input; binding signal ([2]; 0.5 ug protein): 0.142 % input; binding signal ([2]; 1 ug protein): 0.189 % input; binding signal ([2]; 2 ug protein, yeast tRNA): 0.974 % input; binding signal ([2]; 2 ug protein): 0.183 % input; binding signal ([2]; 3 ug protein): 0.22 % input; binding signal ([3]; mixed with 5 ug Repeat A RNA, washes 150 and 15 mM NaCl, EMSA: 50 mM Tris pH …): 0.0666 % input

Question: How did the Kd [4] turn out when Xist Repeat A RNA, 192-nt fragment was run?
Answer: Its Kd is 17.9 nM.

Question: Which binding signal [5] does the source give for Xist Repeat A RNA, 435 nt here?
Answer: Its binding signal is 0.741 % input.

Question: What about the binding signal ([1]; yeast tRNA) of the same substance?
Answer: The binding signal was 8 % input.

Question: What about the binding signal [6] of the same substance?
Answer: The binding signal was 3.43 % input.

Question: What about the binding signal ([2]; 25 pmol protein) of the same substance?
Answer: The binding signal was 1.8 % input.

Question: And the binding signal ([2]; 0.5 ug protein)?
Answer: Its binding signal is 0.342 % input.

Question: And the binding signal ([2]; 1 ug protein)?
Answer: The binding signal was 1.99 % input.

Question: And the binding signal ([2]; 2 ug protein, yeast tRNA)?
Answer: Its binding signal is 3.08 % input.

Question: What about the binding signal ([2]; 2 ug protein) of the same substance?
Answer: The binding signal was 2.92 % input.

Question: And the binding signal ([2]; 3 ug protein)?
Answer: Its binding signal is 9.29 % input.

Question: And the binding signal ([3]; mixed with 5 ug MBP RNA, washes 150 and 15 mM …, EMSA: 50 mM Tris pH 8.0)?
Answer: Its binding signal is 3.04 % input.

Question: For MBP DNA, 300 bp, which binding signal [7] is on record?
Answer: The binding signal was 0.197 % input.

Question: And the binding signal [8]?
Answer: Its binding signal is 0.185 % input.

Question: And the binding signal [9]?
Answer: Its binding signal is 0.000184 % input.

Question: Xist Repeat A DNA, 435 bp was tested. Which binding signal [7] did it give?
Answer: Its binding signal is 0.478 % input.

Question: What about the binding signal [8] of the same substance?
Answer: The binding signal was 0.23 % input.

Question: And the binding signal [9]?
Answer: The binding signal was 0.002 % input.
